From patent publication US20190352664A1, “COMPOSITIONS AND METHODS FOR CONTROLLING GENE EXPRESSION” (priority 2017, published 2019)

These molecules were tested on Arabidopsis (assay: Ribo-seq and RNA-seq global translatome profiling (translational efficiency TE, mORF/uORF ribo-shift) upon elf18 treatment). Conditions: shift of mORF/uORF ratio, elf18 vs Mock; per uORF.
Format: in vivo
Parameters: key to score (Ribo-shift): Up: ribo-shift up (i.e., increased mORF/uORF ratio); Down: ribo-shift down (i.e., decreased mORF/uORF ratio)

Molecule	score (Ribo-shift)
AT4G24750.1_1: uORF of AT4G24750.1; peptide SEQ ID NO: 26 (nucleic acid, listed as DNA, chemistry not fully specified) DNA: ATGAAGCCAAAACTATCCAATAACTCGAAATTGACTACTCTTTTCTTTTGTCTCTGTTGTTGA	Down

Same assay, conditions: translational efficiency fold change, elf18 vs Mock; listed as shows 5′ UTR of the transcript

Molecule	score (TE change)
AT4G32660.1: 5′ UTR of transcript; Protein kinase superfamily protein (nucleic acid) DNA: AATTGGTGGATGTCGTCGCGGTTCGACCCCAAGGGATTTGGCCGGTAAAATTATTGGGAGTTGTCTTTCTCTTGCACTCTCTCTAGTTCCAAACCCTAGCAATTCCTCTGTTTTCACCATTTTCGGAGATTATCACCTTCTCCCCGATTCGCCGCCTTGTGATTACATCTACGTAAAGAGTTTCTGGTAGAAATTTTCCCTCTTTTAGCTGCAGATTGGCATCAGATTCCGTTCTGGATGTGTCGGTGATCGATTTTCCGCGTCGGTG	TEup (448 had increased TEfc)
AT4G23740.1: 5′ UTR of transcript; Leucine-rich repeat protein kinase family protein (nucleic acid) DNA: CTTTCACCCACTTTAATATGCCAAAAAATAAGAACAAAATTATATCCGTTGCTTGAAAATCACAAGCTCTTCTTAACTTCACAAGTGCTTCAATGGCGGTTCTTCACATTATCTTCACTGCGTAATTGAAGAAGTTGTTCTCTCTTCCTCTTAATTTCGAGTTGTGTTCTTAAAAAACTCCAGAGCTGATTCGATTCTCGAGAAGAAACTAAGCCGACAATAAAGTTCAGATCTGGAAAAAAGCGAGCTCCAGATTACAAAAAGAAACAGCTCGTTTTTTTCACTTTCAAAAAA	TEup (448 had increased TEfc)
AT4G38950.1: 5′ UTR of transcript; ATP binding microtubule motor family protein (nucleic acid) DNA: AAGAACAAACAACTACCAAACTTGTAGGCAGTAGCAGGAGGAAGTGGGTGGGATTAACATTGTCATTTCTCTCTCTTTTTCTTTTACAAATCTTTCCGTTTTGTTTTCTTTTGGTTTTCCGGTGAGCACTGTTGTGTTTCCAATTCCGGCACTCTTTAGGGTTCCCTTTCAGAAGAAAACTTCACATTGTTGTTTCTCTCAACCGTGACATCTTGGATTACTACTTCTGACTACTTTCCTTTTTCATGTGCCCCAAAAGATAATAGTTACTTTTTCAAAATCTGGTTTTGTTGTTTGGGTTTGTGTCATTCATTGATAAAGTCACTAATGGAGAAGTACAAAACAATTGCAAAATTTCGAATCTGTGTTGTCATTGCTGAATTCTGTAGTGGATGTTTGCTTGCAGTTTAGAGCTTCGGAGTGCGAAGAGTGAGACACAAGAGGATTCTTTCTGGAACCGCATTATTCCCTTTAGAGGAGGAAGAAGAAGACAACTCACTCACAAGGAAAACAAAGGTTCCTCTGGTTACTCTGAAATATTCAAACCAATGGTGAGCAATTGGTAGCACTTGCTAAAGAAG	TEdown (389 genes displayed decreased TEfc (|z|≥1.5))
AT4G34460.1: 5′ UTR of transcript; GTP binding protein beta 1 (nucleic acid) DNA: GACCCTCTTCTCTCTCTCTAGCTAGTCTCAGGTCAGAGAAGCCATCATCAACATTCAACAAGAGAGCCGTGTTTGTGTCTTGACTGATTCTTCTCTCAAGCTTTTTTAATCTCTCTCTCTTTTCCCACGTAATTCCCCCAAATCCATTCTTTCTAGGGTTCGATCTCCCTCTCTCAATCATGAACCTTCTTCTCTTCTAGACCCCACAAAGTTTCCCCCTTTTATTTGATCGGCGACGGAGAAGCCTAAGTCTGATCCCGGA	TEdown (389 genes displayed decreased TEfc (|z|≥1.5))
AT4G26080.1: 5′ UTR of transcript; Protein phosphatase 2C family protein (nucleic acid) DNA: GAAGCAATTGTTGCATTAGCCTACCCATTTCCTCCTTCTTTCTCTCTTCTATCTGTGAACAAGGCACATTAGAACTCTTCTTTTCAACTTTTTTAGGTGTATATAGATGAATCTAGAAATAGTTTTATAGTTGGAAATTAATTGAAGAGAGAGAGATATTACTACACCAATCTTTTCAAGAGGTCCTAACGAATTACCCACAATCCAGGAAACCCTTATTGAAATTCAATTCATTTCTTTCTTTCTGTGTTTGTGATTTTCCCGGGAAATATTTTTGGGTATATGTCTCTCTGTTTTTGCTTTCCTTTTTCATAGGAGTCATGTGTTTCTTCTTGTCTTCCTAGCTTCTTCTAATAAAGTCCTTCTCTTGTGAAAATCTCTCGAATTTTCATTTTTGTTCCATTGGAGCTATCTTATAGATCACAACCAGAGAAAAAGATCAAATCTTTACCGTTA	TEdown (389 genes displayed decreased TEfc (|z|≥1.5))
AT1G19270.1: 5′ UTR of transcript; DA1 (nucleic acid) DNA: CGTGGGGAACGTTTTTTCCTGGAAGAAGAAGAAGAAGAGCTCAACAAGCTCAACGACCAAAAAACTTCGGACACGAAGACTTTTTAATTCATTTCTCCTCTTTTGTTTTTTTCGTTCCAAAATATTCGATACTCTCGATCTCTTCTTCGTGATCCTCATTAAATAAAAATACGATTTTTATTCTTTTTTTGTGAGTGCACCAAATTTTTTGACTTTGGATTAGCGTAGAATTCAAGCACATTCTGGGTTTATTCGTGTATGAGTAGACATTGATTTTGTCAAAGTTGCATTCTTTTATATAAAAAAAGTTTAATTTCCTTTTTTCTTTTCTTTTCTCTTTTTTTTTTTTTTCCCCCATGTTATAGATTCTTCCCCAAATTTTGAAGAAAGGAGAGAACTAAAGAGTCCTTTTTGAGATTCTTTTGCTGCTTCCCTTGCTTGATTAGATCATTTTTGTGATTCTGGATTTTGTGGGGGTTTCGTGAAGCTTATTGGGATCTTATCTGATTCAGGATTTTCTCAAGGCTGCATTGCCGTATGAGCAGATAGTTTTATTTAGGCATT	TEdown (389 genes displayed decreased TEfc (|z|≥1.5))
AT4G24750.1: 5′ UTR of transcript; Rhodanese/Cell cycle control phosphatase superfamily protein (nucleic acid) DNA: GAGTCTGGTTCGAAAAGACTGCTTCAATGAAGCCAAAACTATCCAATAACTCGAAATTGACTACTCTTTTCTTTTGTCTCTGTTGTTGATTCGCAAAGGCGAAGATTATCCATCTTCTCAGTTACTCCTACTGGAACCAAAAGCTCAGAACCTTAAAAC	TEdown (389 genes displayed decreased TEfc (|z|≥1.5))
AT4G37925.1: 5′ UTR of transcript; subunit NDH-M of NAD(P)H:plastoquinone dehydrogenase complex (nucleic acid, listed as DNA, chemistry not fully specified, 5′ UTR of transcript; subunit NDH-M of NAD(P)H:plastoquinone dehydrogenase complex) DNA: ATGGTTCTGTAACCGGACAACATCTCAAAACTTGTTCTGTTTTTTTTTTTTCATTTCTTAGACAGAAAA	TEup (448 had increased TEfc)
AT4G32800.1: 5′ UTR of transcript; Integrase-type DNA-binding superfamily protein (nucleic acid) DNA: ATTTCATAAATCATAGAGAGAGAGAGAGAGAGAGAGAGAGAGTTTGGAAACATTCCAAAACCAGAACTCGATATTATTTCACCAAAGAATGATAGAAACAAGAACTATCTTTTTATAAAACTCTTTACACCCCAAAAGAAAATGTCTCACTCGTTTTGCCTTATAATATTTCTTTCAACAACAACCCAAATCTACAAAAAATCCCAATAAAAAAAAACTTCAGTCTGTTTGACATTTTGTCGAACACTTGGACGGCATCACAAAAAGCTCTAAACTTTCTGACTACCA	TEdown (389 genes displayed decreased TEfc (|z|≥1.5))
